Test results from US20110288485A1, “MICRONEEDLE DEVICE” (HISAMITSU PHARMACEUTICAL CO., INC., priority 2008, published 2011).

Key:
[1] = In vitro human skin penetration test by microneedles (parathyroid hormone); assay type: in vitro ADME; details: microneedles height 500 μm compared with 300 μm; 40 μg hPTH coated; attachment six hours
Text: (§1) Two types of microneedles made of a polylactic acid that differ in the length of the needle part (h: 300 μm and 500 μm) were used. The shape of either of these two types of microneedles was square pyramid, and the density of the microneedle was 400 needles/cm^2. Also, the area of either one of microneedle devices was 1 cm^2.
A coating liquid prepared according to the below-described technique (30% human parathyroid hormone hPTH (1-34) (the product of Sichuan Unibiochem Co., Ltd.), 7.5% pullulan, and 0.1% Tween 20) was coated on a microneedle device similarly to Example 1, and after piercing excised human skin with this microneedle device by finger pressing (2 kg/patch), the device and the skin were placed on an acrylic cell for sampling over time. As a receptor layer, physiological saline containing 0.01% benzalkonium chloride was used, and 1 mL of a receptor liquid collected per sampling time was measured by a gamma counter to calculate a PTH concentration. It is to be noted that a period of attachment of the microneedle device was set at six hours. The results of the sampling are as shown in the graph in FIG. 5.
(2) After coating microneedles with the coating solution prepared in (1), radiation of each pharmaceutical preparation was counted using a NaI counter to estimate the content of PTH coated on the needle part. […]

[2] = Hairless rat in vivo absorption test by microneedles (parathyroid hormone)
Text: as §1
Firstly, the abdomen of a hairless rat was pierced with a microneedle device in which tips of the needles were coated with a similar coating liquid to Example 2 (30% human parathyroid hormone hPTH (1-34) (the product of Sichuan Unibiochem Co., Ltd.), 7.5% pullulan, and 0.1% Tween 20) by a similar technique to Example 1 by hand pushing, and the microneedle device was covered with a foam tape (the product of 3M Company) and left attached for six hours. Then, blood was collected over time (amount of blood collected 200 μL/times) to measure the serum hPTH concentration with a Rat PTH IRMA kit (the product of Immutopics International). Also, in a subcutaneous administration group, 0.2 mg/mL hPTH in physiological saline was prepared, 40 μL of which was subcutaneously administered to the back of a hairless rat, and the PTH concentration was similarly measured.

[3] = PTH storage method: acceleration stability test of the content, form of package and stabilizing agent (Example 6); assay type: physicochemical
Method: PTH was prepared at 40 mg/mL with water for injection, which was then dispensed to serve as a drug solution. It was further diluted to 20 mg/mL with water for injection before experiment, 20 μL of which was added dropwise to a microneedle base (400 μg/patch), which served as a medicinal unit.
(§2) A medicinal unit sample for screening of a stabilizing agent was fully dried and enclosed in an aluminum packing material, sandwiched between silicon treated liners, with OZO (OZO kagakugiken Co., Ltd.). It was then stored at 25° C., 40° C., 50° C., and 60° C. to perform an acceleration test to conduct a stability test of the content over time (n=3). The content was returned to room temperature, and then extracted with 4 mL of an extraction liquid, followed by measurement by HPLC.
Extraction liquid: a 0.01% benzalkonium chloride solution or 2% TMTDAB, 1% sodium chloride, and 10 mM acetic acid buffer
Detector: an ultraviolet absorptiometer (measurement wavelength: 220 nm)
Column temperature: 25° C.

[4] = Study on the addition amount of sucrose to PTH, stability of content (Example 7); assay type: physicochemical
Method: as §2
Other than this, the study was conducted in the same manner as the aforementioned Examples.

[5] = Study on drying time of a sucrose additive to PTH, stability of content (Example 8); assay type: physicochemical; details: 60° C.
Method: as §2
Using this solution, a drug solution unit was produced, and preservation qualities resulting from various drying times were examined under a nitrogen stream.

[6] = PTH/pullulan coating liquid: solubility evaluation and amount of PTH coated on microneedles (Example 9); assay type: physicochemical; details: 30% or 40% PTH solution with small amount of surfactant (Tween 20)
Method: In order to optimize a ratio between PTH (1-34) (the product of Sichuan Unibiochem Co., Ltd.) and a coating carrier, which is a water-soluble high molecular weight polymer, a study was conducted using PTH and a coating carrier (pullulan). […] The concentration of pullulan was adjusted based on the viscosity of the solution at the time of dissolving, and the range of the concentration of pullulan was set to 0 to 30% (w/w). It is to be noted that, as the pullulan, one recited in Japanese Pharmacopeia (the product of Hayashibara Biochemical Labs., Inc.) was used. Further, in order to increase the adhesiveness to the needles, a study was also conducted for the case in which a surfactant (Tween20, 0.1%) was added as shown in Table 7.
Evaluation of solubility of PTH was performed after adjusting each solution, and a coating liquid capable of adjusting a uniform solution was subjected to an operation for coating of microneedles made of a polylactic acid. Following the aforementioned method as a coating method, coating was performed only on the tip part of the needles with the use of a metal mask (only the needle part was coated using a metal mask having a diameter of the aperture: 220 μm and thickness: 100 μm).

Q: With human parathyroid hormone hPTH (1-34) as the substance, how does the skin penetration property [1] read?
A: The skin penetration property was “efficient drug delivery is made possible”.

Q: What about the “initial rise in the blood concentration, reaching maximum blood concentration” value ([2]; microneedle device vs subcutaneous administration) of the same substance?
A: Its value is “more rapidly reached than subcutaneous administration”.

Q: What about the “amount of absorption (serum hPTH)” value ([2]; microneedle length 300 and 500 μm, attached six hours) of the same substance?
A: Its value is “increases in the amount of absorption dependent on the length of the microneedles”.

Q: And the “residual ratio (%) relative to the initial value” ([3]; 40° C., 1W)?
A: Its value is 100.22 ± 0.53%.

Q: And the “residual ratio (%) relative to the initial value” ([3]; 40° C., 2W)?
A: Its value is 97.64 ± 0.72%.

Q: What about the “residual ratio (%) relative to the initial value” ([3]; 40° C., 4W) of the same substance?
A: Its value is 97.02 ± 0.65%.

Q: And the “residual ratio (%) relative to the initial value” ([3]; 50° C., 1W)?
A: The value was 94.65 ± 1.55%.

Q: And the “residual ratio (%) relative to the initial value” ([3]; 50° C., 2W)?
A: Its value is 94.10 ± 2.25%.

Q: What about the “residual ratio (%) relative to the initial value” ([3]; 50° C., 4W) of the same substance?
A: Its value is 84.26 ± 1.19%.

Q: What about the “residual ratio (%) relative to the initial value” ([3]; 60° C., 1W) of the same substance?
A: The value was 89.50 ± 1.11%.

Q: What about the “residual ratio (%) relative to the initial value” ([3]; 60° C., 2W) of the same substance?
A: Its value is 88.22 ± 0.82%.

Q: What about the “residual ratio (%) relative to the initial value” ([3]; 60° C., 4W) of the same substance?
A: Its value is 71.80 ± 1.94%.

Q: What about the “residual ratio (%) relative to the initial value” ([4]; 40° C., 1W) of the same substance?
A: The value was 83.26 ± 0.57%.

Q: What about the “residual ratio (%) relative to the initial value” ([4]; 40° C., 4W) of the same substance?
A: The value was 92.82 ± 0.74%.

Q: What about the “residual ratio (%) relative to the initial value” ([4]; 50° C., 4W) of the same substance?
A: Its value is 80.83 ± 4.57%.

Q: What about the “residual ratio (%) relative to the initial value” ([4]; 60° C., 4W) of the same substance?
A: Its value is 76.55 ± 3.95%.

Q: And the “residual ratio (%) relative to the initial value” ([5]; drying time 15 minutes, 1W)?
A: The value was 85.35 ± 0.64%.

Q: What about the “residual ratio (%) relative to the initial value” ([5]; drying time 15 minutes, 4W) of the same substance?
A: The value was 75.43 ± 1.69%.

Q: What about the “residual ratio (%) relative to the initial value” ([5]; drying time 30 minutes, 1W) of the same substance?
A: Its value is 85.53 ± 0.49%.

Q: What about the “residual ratio (%) relative to the initial value” ([5]; drying time 30 minutes, 4W) of the same substance?
A: The value was 73.10 ± 0.36%.

Q: And the “residual ratio (%) relative to the initial value” ([5]; drying time 1 hour, 1W)?
A: The value was 84.62 ± 0.72%.

Q: And the “residual ratio (%) relative to the initial value” ([5]; drying time 1 hour, 4W)?
A: The value was 75.56 ± 1.69%.

Q: And the “residual ratio (%) relative to the initial value” ([5]; drying time 2 hours, 1W)?
A: The value was 86.01 ± 1.07%.

Q: What about the “residual ratio (%) relative to the initial value” ([5]; drying time 2 hours, 4W) of the same substance?
A: The value was 73.93 ± 1.41%.

Q: And the “residual ratio (%) relative to the initial value” ([5]; drying time 16 hours, 1W)?
A: The value was 87.08 ± 0.72%.

Q: What about the “residual ratio (%) relative to the initial value” ([5]; drying time 16 hours, 4W) of the same substance?
A: The value was 72.71 ± 2.01%.

Q: What about the “amount of PTH attached by single coating operation” value [6] of the same substance?
A: The value was no less than 20 µg.
